Results reported in US20130177979A1, “METHODS AND COMPOSITIONS FOR CELL PERMEABLE STAT3 INHIBITOR” (University of Central Florida Research Foundation, Inc., priority 2010, published 2013).

Assays:
[1] = target: GpYLPQTV (IL-6R/gp130-derived pTyr peptide); assay: SPR (SensiQ), His-tagged protein immobilised on HisCap chip, pTyr peptide as analyte
[2] = target: 5-carboxyfluorescein-GpYLPQTV-NH2; assay: Fluorescence polarization saturation curve; 10 nM 5-carboxyfluorescein-GpYLPQTV-NH2 probe with increasing purified His-Stat3
[3] = target: PVpYHNQP (pY1086 peptide of EGFR); assay: SPR (SensiQ), His-tagged protein immobilised on HisCap chip, pTyr peptide as analyte
[4] = target: PpYLKTK (Stat3-derived pTyr705 peptide); assay: as above
[5] = target: PEpYINQS (pY1068 peptide of EGFR); assay: as above
[6] = target: GpYIKTE (Stat1 pY701 peptide); assay: as above
[7] = target: GpYVKPQ (pTyr peptide of Stat5); assay: as above
[8] = target: GpYVKPQ (pTyr peptide of Stat5); assay: SPR (SensiQ); His-tagged Stat3 SH2 domain immobilised on a HisCap sensor chip, GpYVKPQ passed over as analyte; sensorgram shown at 100 µM

In the case of His-tagged Stat3 (full-length Stat3), the Kd [1] is reported as 0.02 µM and the EC50 (read off the curve) [2] is reported as 0.1 µM.
For His-tagged Stat3 SH2 domain, the Kd [3] was 2.6 µM, the Kd [4] was 1.6 µM and the Kd [5] was 0.4 µM. For the same substance, the Kd [1] was 0.03 µM, the Kd [6] was 6.6 µM and the Kd [7] was 5200 µM. It also gave a Kd [8] of 5140 µM.
